Test results reported in article PMC2739586 (Journal of molecular biology, 2009).

Target: the molecule itself
Assay: crystal structure

B1: Miner1 (C92S), soluble region of human Miner1 (amino acids 57-135) (domain or fragment)
chain: GSHMRPFLPKKKQQKDSLINLKIQKENPKVVNEINIEDLSLTKAAYCRCWRSKTFPACDGSHNKHNELTGDNVGPLILKKKEV
- stoichiometry N: 2
